Target: T1, CCT
T1 construct: Take 20S mouse testis sucrose gradient fractions enriched in CCT; from tissue; host or cells: mouse testis, 20S sucrose gradient fractions
Test: CCT binding to immobilised actin peptide array (Pepset pins, MAb 91a ELISA, absorbance 410 nm)
Conditions: FIG. 9; mouse testis CCT
Text: Peptides of 15 amino acids in length were synthesised on polyethylene pins mounted on blocks according to the method of Maeji et al (Maeji N. J. et al, 1994) and commercially available under the trade name of Pepsets™ from Chiron Mimotopes. The sequence of the peptides were such that they defined the full length of the actin sequence with a 5 amino acid overlap between the sequential peptides, and selected peptides representing key known structures in actin (Table 2 annotated). The peptides are synthesised on polyethylene pins which are presented to be compatible with standard 96 well microtitre plates. The pins become the solid phase on which interactions with CCT complexes can be probed. The method is described below. • 1. Take Pepset pins from storage at −20(° C.) and equilibrate at room temperature. • 2. Wash pins with PBS for 10 minutes at room temperature on a shaking table. • 3. Incubate pins with blocking buffer (2% w/v BSA 0.1% Tween 20 in PBS) for 60 minutes at room temperature on a shaker. • 4. Wash pins with PBS for 10 minutes at room temperature on a shaker (times 1) • 5. […] Remove pins from the microtitre plate and read the microtitre plate at 410 nm on a Dynatech ELISA plate reader. • 16. Results are expressed as a 410 nm absorbance reading for each well corresponding to each unique substrate peptide from the actin molecule. […]

Sequence: GGTTMYPGIADRMQK [substrate peptide 61]
- CCT binding to immobilised substrate peptide (410 nm absorbance reading): new protein interaction site

From patent US7018791B1, “Binding complexes” (Institute of Cancer Research: Royal Cancer Hospital, priority 1997, dated 2006)
